In this assay the target is S100A9 (human) (UniProt P06702). Briefly: cell-based or functional assay.

Experimental findings from US20180292411A1 are described below.

S100A9 (human), sequence (P06702 whole entry): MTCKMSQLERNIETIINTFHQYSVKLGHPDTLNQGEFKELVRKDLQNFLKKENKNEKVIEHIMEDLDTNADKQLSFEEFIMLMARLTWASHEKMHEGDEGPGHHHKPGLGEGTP

Substance “S100A9 high-affinity chimeric (CD33-IgG1) decoy receptor (from UniProt P20138 18-259) (Fc fusion)” returned a colony-forming capacity of MDS BM-MNC (fold greater than controls) of less than 6.6.
